Results as given in patent US20230295276A1.

Assays:
[1] = target: lysate of porcine coronavirus; assay: ELISA Test 2, coated viral lysate, antibody 1:4000, secondary antibody 1:2000
[2] = target: lysate of porcine coronavirus; assay: ELISA Test 1, coated viral lysate, antibody 1:4000, Group 1
[3] = target: lysate of porcine pseudorabies virus; assay: as above
[4] = target: lysate of porcine coronavirus; assay: ELISA Test 1, coated viral lysate, antibody 1:4000, Group 2
[5] = target: lysate of porcine pseudorabies virus; assay: as above

B1: anti-PRRSV antibody 572 (antibody, V domains shown)
VH: EVQLQQSGPELVKPGASVKISCKASGFSFTGYYMHWVKQSHVKSLEWIGRIYPYTDSTIYNQNFKDKAGLTVDKSSSTAYMELHSLTSEDSAVYYCARDNGYADYAMDYWGQGTSVTVSS
VL: DIVMTQSPSSLSAFLGDSITITCHASQNIHVWLSWYQQKPGNIPKLLIYKASNLHTGVPSRFSGSGSGTGFTLTISSLQPEDIGTYYCQQGQSYPLTFGAGTKLELK
B1 showed an OD450 [1] of 0.782 OD450, an OD450 [2] of 0.322 OD450 and an OD450 [3] of 0.091 OD450. It also gave an OD450 [4] of 0.312 OD450 and an OD450 [5] of 0.1 OD450.
